Measured values published in patent US20230093155A1 (CUGENE, published 2023).
Bridge positions count the residues as written; N and C are the ends. Ends that are not written are not given here.

target: P-0153 (IL-15/IL-15RαSushi+ Fc fusion protein); test: ELISA, P-0153 coated, biotinylated peptide titrated, Streptavidin-HRP
Description: The five peptides, L01 to L05 (SEQ ID NO: 97-101) in Table 19 were synthesized and assessed for their binding to IL-15 in ELISA format. […] Streptavidin-HRP complex at the manufacturer's recommended concentration was added and signal was developed by TMB substrate.

Sequence of P-0153 (IL-15/IL-15RαSushi+ Fc fusion protein) (chain, as listed by the source, chain 1 of 2): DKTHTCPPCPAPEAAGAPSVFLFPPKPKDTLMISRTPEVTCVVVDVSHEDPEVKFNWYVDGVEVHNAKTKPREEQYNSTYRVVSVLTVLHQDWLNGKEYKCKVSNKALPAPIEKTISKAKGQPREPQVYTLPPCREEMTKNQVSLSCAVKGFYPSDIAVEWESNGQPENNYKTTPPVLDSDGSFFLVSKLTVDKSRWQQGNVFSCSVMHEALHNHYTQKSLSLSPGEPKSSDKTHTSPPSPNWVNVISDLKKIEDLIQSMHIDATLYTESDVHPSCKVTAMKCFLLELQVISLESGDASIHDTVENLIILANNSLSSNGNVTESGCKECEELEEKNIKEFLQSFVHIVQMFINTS
Sequence of P-0153 (IL-15/IL-15RαSushi+ Fc fusion protein) (chain, as listed by the source, chain 2 of 2): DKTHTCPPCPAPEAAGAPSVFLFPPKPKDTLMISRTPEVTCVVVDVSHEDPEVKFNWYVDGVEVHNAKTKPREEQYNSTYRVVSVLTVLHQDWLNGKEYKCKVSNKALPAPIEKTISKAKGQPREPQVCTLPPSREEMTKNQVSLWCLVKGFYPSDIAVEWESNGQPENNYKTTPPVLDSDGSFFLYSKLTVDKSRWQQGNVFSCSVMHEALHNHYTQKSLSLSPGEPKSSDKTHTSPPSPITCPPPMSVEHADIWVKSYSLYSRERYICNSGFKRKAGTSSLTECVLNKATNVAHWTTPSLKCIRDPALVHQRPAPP

binding result | Binder
binds | CEISQASHYFERHLC (bridge 1-15 (inferred); also: biotinylated, site not given here, cyclized, bridge kind not given here, also called cyclized loop 2) [L03 (IL-2Rβ-based blocking peptide)]

target: T1, P-0689 (IL-2 Fc fusion) (Homo sapiens (Human), UniProt P0DOX5 223-448 = IgG part); test: ELISA, IL-2RαSushi Fc fusion coated, P-0689 titrated, biotin anti-IL2 antibody and Avidin-HRP
T1 construct: Monovalent IL-2 S125I Fc fusion; also called IL-2 S125I monovalent Fc fusion protein; monovalent wild-type IL-2 Fc fusion protein
Description: IL-2Rα variants were designed to reduce binding to IL-2 by incorporating mutations at residues interacting IL-2 so that the D3 moiety would readily diffuse away upon in vivo proteolysis. Three exemplary IL-2RαSushi variants (SEQ ID NOS: 267-269) were expressed as monovalent Fc fusion proteins corresponding to P-0751 (Y43A), P-0752 (L42G), and P-0753 (R36A), respectively. The three IL-2RαSushi variant Fc fusions were assessed for the impacts of individual mutations on binding to IL-2 in ELISA in comparison to their wild-type IL-2RαSushi counterpart fusion referred to as P-0757.
Briefly, IL-2RαSushi variant monovalent Fc fusion proteins was coated onto the wells of Nunc Maxisorp 96-well microplates at 1 μg/well. […] Following a one-hour incubation at room temperature, 100 μl/well of biotin anti-IL2 antibody clone B33-2 (BD biosciences) at 1 μg/ml were added to each well and incubated at room temperature for 1 hour. Subsequently, 100 μl/well of Avidin-HRP (BioLegend) at 1:500 dilution was added to each well and incubated for 30 min. Finally, 100 μl TMB substrate was added to each well; the plate was developed at room temperature, and 100 μl/well of stop solution was added. Absorbance was determined at 450 nm and curves were fit using Prism software (GraphPad).

Binder | EC50 | EC50 Fold change vs w/t IL-2Rα
P-0757 (wild-type IL-2RαSushi monovalent Fc fusion) (Fc fusion, also called w/t IL-2Rα; not shown: Fc chain fused to the Sushi domain, its linker and orientation, and the partner Fc chain of the monovalent heterodimer) ELCDDDPPEIPHATFKAMAYKEGTMLNCECKRGFRRIKSGSLYMLCTGNSSHSSWDNQCQCTSSATRNTTKQVTPQPEEQKERKTTEMQSPMQPVDQASLPGHCREPPPWENEATERIYHFVVGQMVYYQCVQGYRALHRGPAESVCKMTHGKTRWTQPQLICTG | 0.26 nM | 1 fold
P-0753 (IL-2RαSushi R36A monovalent Fc fusion) (Fc fusion, also called IL-2Rα R36A; not shown: Fc chain fused to the Sushi variant, its linker and orientation, and the partner Fc chain of the monovalent heterodimer) ELCDDDPPEIPHATFKAMAYKEGTMLNCECKRGFRAIKSGSLYMLCTGNSSHSSWDNQCQCTSSATRNTTKQVTPQPEEQKERKTTEMQSPMQPVDQASLPGHCREPPPWENEATERIYHFVVGQMVYYQCVQGYRALHRGPAESVCKMTHGKTRWTQPQLICTG | 90 nM | 346 fold

Continued, values first:

EC50 | EC50 Fold change vs w/t IL-2Rα | Binder
2.1 nM | 8.1 fold | P-0751 (IL-2RαSushi Y43A monovalent Fc fusion) (Fc fusion, also called IL-2Rα Y43A; not shown: Fc chain fused to the Sushi variant, its linker and orientation, and the partner Fc chain of the monovalent heterodimer) ELCDDDPPEIPHATFKAMAYKEGTMLNCECKRGFRRIKSGSLAMLCTGNSSHSSWDNQCQCTSSATRNTTKQVTPQPEEQKERKTTEMQSPMQPVDQASLPGHCREPPPWENEATERIYHFVVGQMVYYQCVQGYRALHRGPAESVCKMTHGKTRWTQPQLICTG
9.2 nM | 35 fold | P-0752 (IL-2RαSushi L42G monovalent Fc fusion) (Fc fusion, also called IL-2Rα L42G; not shown: Fc chain fused to the Sushi variant, its linker and orientation, and the partner Fc chain of the monovalent heterodimer) ELCDDDPPEIPHATFKAMAYKEGTMLNCECKRGFRRIKSGSGYMLCTGNSSHSSWDNQCQCTSSATRNTTKQVTPQPEEQKERKTTEMQSPMQPVDQASLPGHCREPPPWENEATERIYHFVVGQMVYYQCVQGYRALHRGPAESVCKMTHGKTRWTQPQLICTG
